Assay results as given in patent US5780025A, “Compositions and methods for the synthesis and assay of enkephalinase” (Genentech, Inc., priority 1993, dated 1998).

Experiments:
[1] = biological target: T1, dansyl-Gly-Trp-Gly or dansyl-Gly-Tyr-Gly (Rattus norvegicus, UniProt P07861); assay: Enkephalinase activity of expressed rat enkephalinase material; assay type: biochemical; conditions: rat enkephalinase cDNA expression products
T1 construct: made in house; host or cells: human embryonic kidney (293) cells (pCISrENK); also rabbit reticulocyte lysate in vitro translation (prENKsense)
T1 sequence (P07861 1-750): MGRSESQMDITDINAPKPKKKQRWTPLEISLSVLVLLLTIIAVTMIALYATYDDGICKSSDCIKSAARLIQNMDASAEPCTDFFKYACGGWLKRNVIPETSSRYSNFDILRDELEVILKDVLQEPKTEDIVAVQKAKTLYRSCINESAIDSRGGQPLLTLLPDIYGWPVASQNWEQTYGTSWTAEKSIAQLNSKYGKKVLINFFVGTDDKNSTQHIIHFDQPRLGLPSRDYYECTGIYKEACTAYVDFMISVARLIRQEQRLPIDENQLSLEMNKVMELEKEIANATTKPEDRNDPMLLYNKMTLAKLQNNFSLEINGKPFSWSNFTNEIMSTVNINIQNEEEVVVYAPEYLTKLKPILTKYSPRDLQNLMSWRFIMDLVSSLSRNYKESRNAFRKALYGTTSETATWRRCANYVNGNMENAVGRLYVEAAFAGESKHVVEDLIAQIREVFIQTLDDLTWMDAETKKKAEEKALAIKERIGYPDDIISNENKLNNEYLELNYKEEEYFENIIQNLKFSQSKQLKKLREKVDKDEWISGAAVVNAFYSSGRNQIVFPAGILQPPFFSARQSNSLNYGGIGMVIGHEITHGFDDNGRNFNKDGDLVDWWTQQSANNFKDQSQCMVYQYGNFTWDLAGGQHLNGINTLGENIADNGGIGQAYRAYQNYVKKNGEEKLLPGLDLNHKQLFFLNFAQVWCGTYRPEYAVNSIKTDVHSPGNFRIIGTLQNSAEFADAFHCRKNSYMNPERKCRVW
Description: An assay using novel fluorescent substrates for enkephalinase was developed to assess whether enkephalinase is expressed. This assay is based on the disappearance of energy transfer between a tryptophan or a tyrosine residue and the 5-dimethylaminonaphthalene-1-sulfonyl group (dansyl) in the substrates dansyl-Gly-Trp-Gly or dansyl-Gly-Tyr-Gly upon hydrolysis of their Gly-Trp or Gly-Tyr amide bond by enkephalinase. No significant difference in Km or kcat values were found for dansyl-Gly-Trp-Gly and dansyl-Gly-Tyr-Gly as the active site of enkephalinase appears to accommodate tryptophan residues similarly to tyrosine. The tryptophan and tyrosine containing substrates can be used for continuous recording of enkephalinase activity. […]
Fluorescence measurements were made using a Perkin Elmer, model 650-10S spectrofluorometer, equipped with a temperature controlled cell-holder, maintained at 37° C. […] The 600 μl mixture was transferred into a quartz cuvette, and fluorescence measured. […] The fluorescence in the incubation media could thus be related to the amounts of hydrolyzed substrates. […] Ten μl of purified rat kidney enkephalinase was added and the increase in tryptophan or tyrosine fluorescence was continuously monitored (excitation=280 nm, emission=360 nm for tryptophan, excitation 277, emission 315 for tyrosine). […] Under these conditions, tryptophan fluorescence was stable for over 2 hr.

[2] = biological target: T2, ^3 H-(DAla^2, Leu^5)enkephalin (Rattus norvegicus, UniProt P07861); assay: Assay of enkephalinase activity with tritiated enkephalin substrate (Llorens et al. 1982); assay type: biochemical
T2 construct: Rat kidney enkephalinase was purified to apparent homogeneity; from tissue; host or cells: rat kidney (male rats, membrane fraction, Triton X-100 solubilised)
T2 sequence (P07861 1-750): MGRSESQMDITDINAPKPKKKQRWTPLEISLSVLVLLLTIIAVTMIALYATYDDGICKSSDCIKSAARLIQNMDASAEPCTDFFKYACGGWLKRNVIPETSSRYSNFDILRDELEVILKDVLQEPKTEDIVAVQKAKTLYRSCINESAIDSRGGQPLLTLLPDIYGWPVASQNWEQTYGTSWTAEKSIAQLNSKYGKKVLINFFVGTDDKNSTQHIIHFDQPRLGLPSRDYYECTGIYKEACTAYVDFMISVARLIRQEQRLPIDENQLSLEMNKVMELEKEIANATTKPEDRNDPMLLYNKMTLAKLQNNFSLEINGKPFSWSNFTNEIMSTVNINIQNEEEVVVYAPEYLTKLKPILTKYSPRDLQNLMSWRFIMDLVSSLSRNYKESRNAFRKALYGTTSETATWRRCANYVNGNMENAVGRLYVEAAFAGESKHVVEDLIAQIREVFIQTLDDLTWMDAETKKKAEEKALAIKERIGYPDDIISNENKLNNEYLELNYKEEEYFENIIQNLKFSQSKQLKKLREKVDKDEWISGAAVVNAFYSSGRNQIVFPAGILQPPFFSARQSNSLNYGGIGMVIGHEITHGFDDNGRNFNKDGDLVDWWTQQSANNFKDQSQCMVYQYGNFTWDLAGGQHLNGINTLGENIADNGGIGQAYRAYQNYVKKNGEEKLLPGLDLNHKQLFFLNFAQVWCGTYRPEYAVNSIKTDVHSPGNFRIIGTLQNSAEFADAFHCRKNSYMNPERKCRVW
Description: As used herein, enkephalinase or enkephalinase derivatives refers to proteins which are enzymatically active or are immunologically cross-reactive with enzymatically active enkephalinase. Enzymatically functional enkephalinase is capable of cleaving the Gly^3 -Phe^4 amide bond of ^3 H-(DAla^2, Leu^5)enkephalin in an assay as described by Llorens et al. (1982).
"Essentially free from" or "essentially pure" when used to describe the state of enkephalinase produced by the invention means free of protein or other materials normally associated with enkephalinase in its in vivo physiological milieu as for example when enkephalinase is obtained from blood and/or tissues by extraction and purification.
Enkephalinase activity was measured as described by Llorens et al. (1982) using ^3 H-(DAla^2, Leu^5)enkephalin as a substrate. […]

B1: prENKsense: in vitro transcription/translation product of plasmid prENKsense (full length rat enkephalinase cDNA), rabbit reticulocyte lysate (protein, UniProt P07861 1-750, looked up)
chain: MGRSESQMDITDINAPKPKKKQRWTPLEISLSVLVLLLTIIAVTMIALYATYDDGICKSSDCIKSAARLIQNMDASAEPCTDFFKYACGGWLKRNVIPETSSRYSNFDILRDELEVILKDVLQEPKTEDIVAVQKAKTLYRSCINESAIDSRGGQPLLTLLPDIYGWPVASQNWEQTYGTSWTAEKSIAQLNSKYGKKVLINFFVGTDDKNSTQHIIHFDQPRLGLPSRDYYECTGIYKEACTAYVDFMISVARLIRQEQRLPIDENQLSLEMNKVMELEKEIANATTKPEDRNDPMLLYNKMTLAKLQNNFSLEINGKPFSWSNFTNEIMSTVNINIQNEEEVVVYAPEYLTKLKPILTKYSPRDLQNLMSWRFIMDLVSSLSRNYKESRNAFRKALYGTTSETATWRRCANYVNGNMENAVGRLYVEAAFAGESKHVVEDLIAQIREVFIQTLDDLTWMDAETKKKAEEKALAIKERIGYPDDIISNENKLNNEYLELNYKEEEYFENIIQNLKFSQSKQLKKLREKVDKDEWISGAAVVNAFYSSGRNQIVFPAGILQPPFFSARQSNSLNYGGIGMVIGHEITHGFDDNGRNFNKDGDLVDWWTQQSANNFKDQSQCMVYQYGNFTWDLAGGQHLNGINTLGENIADNGGIGQAYRAYQNYVKKNGEEKLLPGLDLNHKQLFFLNFAQVWCGTYRPEYAVNSIKTDVHSPGNFRIIGTLQNSAEFADAFHCRKNSYMNPERKCRVW
modifications: full-length in vitro translated
notes: in vitro transcription/translation product of plasmid prENKsense (full length rat enkephalinase cDNA), rabbit reticulocyte lysate
[1]
  enkephalinase activity of expressed material: did not have detectable activity

B2: rat kidney enkephalinase: enkephalinase purified from rat kidney, fractions from the last Concanavalin-A step, about 90 Kdalton protein (protein, UniProt P07861 2-750, looked up)
Neprilysin: GRSESQMDITDINAPKPKKKQRWTPLEISLSVLVLLLTIIAVTMIALYATYDDGICKSSDCIKSAARLIQNMDASAEPCTDFFKYACGGWLKRNVIPETSSRYSNFDILRDELEVILKDVLQEPKTEDIVAVQKAKTLYRSCINESAIDSRGGQPLLTLLPDIYGWPVASQNWEQTYGTSWTAEKSIAQLNSKYGKKVLINFFVGTDDKNSTQHIIHFDQPRLGLPSRDYYECTGIYKEACTAYVDFMISVARLIRQEQRLPIDENQLSLEMNKVMELEKEIANATTKPEDRNDPMLLYNKMTLAKLQNNFSLEINGKPFSWSNFTNEIMSTVNINIQNEEEVVVYAPEYLTKLKPILTKYSPRDLQNLMSWRFIMDLVSSLSRNYKESRNAFRKALYGTTSETATWRRCANYVNGNMENAVGRLYVEAAFAGESKHVVEDLIAQIREVFIQTLDDLTWMDAETKKKAEEKALAIKERIGYPDDIISNENKLNNEYLELNYKEEEYFENIIQNLKFSQSKQLKKLREKVDKDEWISGAAVVNAFYSSGRNQIVFPAGILQPPFFSARQSNSLNYGGIGMVIGHEITHGFDDNGRNFNKDGDLVDWWTQQSANNFKDQSQCMVYQYGNFTWDLAGGQHLNGINTLGENIADNGGIGQAYRAYQNYVKKNGEEKLLPGLDLNHKQLFFLNFAQVWCGTYRPEYAVNSIKTDVHSPGNFRIIGTLQNSAEFADAFHCRKNSYMNPERKCRVW
[2]; six 1 ml fractions from the last Concanavalin-A step, measured at 25° C., ^3 H-(DAla^2, Leu^5)enkephalin as substrate
  enkephalinase activity, specific activity: 27.4 nmole/mg protein/min

B3: Enkephalinase: Enkephalinase produced by the method of the instant invention, essentially pure (protein, UniProt P07861 2-750, looked up)
Neprilysin: GRSESQMDITDINAPKPKKKQRWTPLEISLSVLVLLLTIIAVTMIALYATYDDGICKSSDCIKSAARLIQNMDASAEPCTDFFKYACGGWLKRNVIPETSSRYSNFDILRDELEVILKDVLQEPKTEDIVAVQKAKTLYRSCINESAIDSRGGQPLLTLLPDIYGWPVASQNWEQTYGTSWTAEKSIAQLNSKYGKKVLINFFVGTDDKNSTQHIIHFDQPRLGLPSRDYYECTGIYKEACTAYVDFMISVARLIRQEQRLPIDENQLSLEMNKVMELEKEIANATTKPEDRNDPMLLYNKMTLAKLQNNFSLEINGKPFSWSNFTNEIMSTVNINIQNEEEVVVYAPEYLTKLKPILTKYSPRDLQNLMSWRFIMDLVSSLSRNYKESRNAFRKALYGTTSETATWRRCANYVNGNMENAVGRLYVEAAFAGESKHVVEDLIAQIREVFIQTLDDLTWMDAETKKKAEEKALAIKERIGYPDDIISNENKLNNEYLELNYKEEEYFENIIQNLKFSQSKQLKKLREKVDKDEWISGAAVVNAFYSSGRNQIVFPAGILQPPFFSARQSNSLNYGGIGMVIGHEITHGFDDNGRNFNKDGDLVDWWTQQSANNFKDQSQCMVYQYGNFTWDLAGGQHLNGINTLGENIADNGGIGQAYRAYQNYVKKNGEEKLLPGLDLNHKQLFFLNFAQVWCGTYRPEYAVNSIKTDVHSPGNFRIIGTLQNSAEFADAFHCRKNSYMNPERKCRVW
[2]; 20 nM ^3 H-(DAla^2, Leu^5)enkephalin as substrate, 25° C., 50 mM pH 7.4 HEPES buffer containing 0.02% Tween 20
  specific activity: at least 25 nmole/mg protein/min
